One experiment concerns the target T1, GST-Kap123 (S. cerevisiae, UniProt P40069 1-1113).
T1 construct: importin Kap123, S. cerevisiae; source: E. coli BL21, purified as previously described
T1 sequence (looked up): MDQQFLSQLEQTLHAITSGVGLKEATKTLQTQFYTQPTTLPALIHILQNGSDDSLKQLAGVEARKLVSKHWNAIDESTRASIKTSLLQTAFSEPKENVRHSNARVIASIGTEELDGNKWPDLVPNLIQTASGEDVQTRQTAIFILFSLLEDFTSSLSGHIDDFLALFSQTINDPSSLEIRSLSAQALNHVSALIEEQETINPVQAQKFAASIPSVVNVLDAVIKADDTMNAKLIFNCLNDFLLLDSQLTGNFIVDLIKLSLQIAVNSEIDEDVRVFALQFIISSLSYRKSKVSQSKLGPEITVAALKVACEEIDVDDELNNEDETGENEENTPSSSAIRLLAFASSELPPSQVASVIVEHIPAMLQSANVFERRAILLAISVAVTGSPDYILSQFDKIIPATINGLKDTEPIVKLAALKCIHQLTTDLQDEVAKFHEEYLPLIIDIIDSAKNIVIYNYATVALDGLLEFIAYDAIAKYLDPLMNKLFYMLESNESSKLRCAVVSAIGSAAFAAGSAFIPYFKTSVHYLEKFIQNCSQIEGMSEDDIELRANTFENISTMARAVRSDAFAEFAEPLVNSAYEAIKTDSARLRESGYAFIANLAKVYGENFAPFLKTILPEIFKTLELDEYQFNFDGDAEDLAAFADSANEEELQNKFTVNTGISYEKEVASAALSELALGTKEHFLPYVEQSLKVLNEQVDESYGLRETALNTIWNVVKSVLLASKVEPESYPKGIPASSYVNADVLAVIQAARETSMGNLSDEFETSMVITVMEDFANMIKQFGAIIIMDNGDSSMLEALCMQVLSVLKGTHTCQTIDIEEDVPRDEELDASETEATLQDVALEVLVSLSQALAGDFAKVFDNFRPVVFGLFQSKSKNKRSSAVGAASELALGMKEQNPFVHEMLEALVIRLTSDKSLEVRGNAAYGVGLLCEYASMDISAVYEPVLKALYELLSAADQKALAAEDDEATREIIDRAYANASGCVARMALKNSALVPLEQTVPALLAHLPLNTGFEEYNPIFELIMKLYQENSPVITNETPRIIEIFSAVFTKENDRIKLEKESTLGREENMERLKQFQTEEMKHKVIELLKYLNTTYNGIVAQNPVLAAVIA
Nature of the experiment: pull-down; GST-tagged importins immobilised on Glutathione Sepharose, incubated with buffer, purified Fap7 or Fap7:uS11 for 1 hr, in presence of 100 µl competing E. coli lysate; Coomassie and Western. The settings on record: both partners purified.

Another experiment has as its target T2, GST-Msn5 (S. cerevisiae, UniProt P52918 1-1224).
T2 construct: Msn5, S. cerevisiae; source: E. coli BL21, purified as previously described
T2 sequence (looked up): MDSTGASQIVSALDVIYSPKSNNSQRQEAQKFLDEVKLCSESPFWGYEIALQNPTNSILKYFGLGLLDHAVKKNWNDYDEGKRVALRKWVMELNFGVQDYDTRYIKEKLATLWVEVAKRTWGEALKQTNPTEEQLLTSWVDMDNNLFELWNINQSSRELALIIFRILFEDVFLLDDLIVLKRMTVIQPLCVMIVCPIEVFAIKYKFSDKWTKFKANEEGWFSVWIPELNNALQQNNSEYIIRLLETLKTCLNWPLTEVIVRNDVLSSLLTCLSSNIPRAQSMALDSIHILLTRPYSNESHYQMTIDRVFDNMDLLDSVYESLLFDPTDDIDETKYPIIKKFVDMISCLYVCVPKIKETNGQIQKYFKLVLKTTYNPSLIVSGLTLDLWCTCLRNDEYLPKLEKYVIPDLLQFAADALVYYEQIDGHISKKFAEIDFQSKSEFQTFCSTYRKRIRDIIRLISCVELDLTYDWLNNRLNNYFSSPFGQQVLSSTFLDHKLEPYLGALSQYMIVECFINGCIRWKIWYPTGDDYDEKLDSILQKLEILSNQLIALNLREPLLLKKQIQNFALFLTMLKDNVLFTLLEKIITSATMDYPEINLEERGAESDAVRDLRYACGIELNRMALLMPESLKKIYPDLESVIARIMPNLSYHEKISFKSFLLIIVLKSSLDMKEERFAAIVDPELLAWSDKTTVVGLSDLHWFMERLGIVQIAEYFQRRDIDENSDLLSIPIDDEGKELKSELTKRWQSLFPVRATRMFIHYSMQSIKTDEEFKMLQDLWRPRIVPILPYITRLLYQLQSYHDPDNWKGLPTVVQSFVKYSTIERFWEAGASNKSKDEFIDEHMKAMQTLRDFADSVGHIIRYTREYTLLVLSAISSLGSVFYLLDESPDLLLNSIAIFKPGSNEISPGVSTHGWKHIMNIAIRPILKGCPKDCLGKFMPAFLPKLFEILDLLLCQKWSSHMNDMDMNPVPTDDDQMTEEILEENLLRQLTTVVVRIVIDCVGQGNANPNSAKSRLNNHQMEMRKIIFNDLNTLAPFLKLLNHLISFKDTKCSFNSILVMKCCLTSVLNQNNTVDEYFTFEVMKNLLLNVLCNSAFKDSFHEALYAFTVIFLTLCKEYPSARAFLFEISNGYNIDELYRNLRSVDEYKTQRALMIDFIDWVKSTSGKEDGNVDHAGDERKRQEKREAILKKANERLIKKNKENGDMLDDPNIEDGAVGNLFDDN
The description is as above. As to conditions: both partners purified.

B1: Fap7 (enzyme, S. cerevisiae, UniProt Q12055 1-197, looked up)
chain: MEARRYGPNIIVTGTPGCGKSSTCEFLKNKLKDYKYYNISDFAKDNDCFEGYDEGRKSHIVDEDKLLDMLEPLLRQGNSIVDWHVNDVFPERLIDLVVVLRCDNSNLYSRLHARGYHDSKIEENLDAEIMGVVKQDAVESYEPHIVVELQSDTKEDMVSNVSRIVAWEKMWLEQHPDGVTNEYQGPRSDDEDDEDSE
notes: Fap7, conserved ATPase, S. cerevisiae (YDL166C); only the complex is printed as His6-Fap7:uS11; also called purified Fap7; Fap7 alone; source: E. coli BL21, purified
In the case of B1, the binding result in the experiment with GST-Kap123 and with GST-Msn5 was “binds” throughout.

Values taken from publication PMC5148605, “Prefabrication of a ribosomal protein subcomplex essential for eukaryotic ribosome formation” (eLife, 2016).
